Experimental data from paper PMC7391827 (Science (New York, N.Y.), 2020).

T1: S0_2.126 (synthetic construct (de novo design))
T1 chain: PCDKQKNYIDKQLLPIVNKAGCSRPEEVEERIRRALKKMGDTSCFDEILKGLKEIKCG


How the values were obtained:
[1] = target: prefusion RSVF (preRSVF), prefusion-stabilized respiratory syncytial virus fusion protein (respiratory syncytial virus) (UniProt P03420)
[2] = target: T1, S0_2.126; test: SPR

Chain of prefusion RSVF (preRSVF), prefusion-stabilized respiratory syncytial virus fusion protein (respiratory syncytial virus) (P03420 135-513): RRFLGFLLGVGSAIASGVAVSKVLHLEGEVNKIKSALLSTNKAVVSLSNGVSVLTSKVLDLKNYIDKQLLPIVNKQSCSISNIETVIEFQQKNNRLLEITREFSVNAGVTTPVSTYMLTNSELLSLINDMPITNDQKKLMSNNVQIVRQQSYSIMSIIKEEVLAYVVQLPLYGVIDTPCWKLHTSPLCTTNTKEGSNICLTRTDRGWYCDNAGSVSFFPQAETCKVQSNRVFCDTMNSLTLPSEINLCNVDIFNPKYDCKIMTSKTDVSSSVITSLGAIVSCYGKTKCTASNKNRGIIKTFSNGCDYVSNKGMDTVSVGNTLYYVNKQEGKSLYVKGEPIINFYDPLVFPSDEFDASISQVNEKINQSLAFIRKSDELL

Molecule | Kd [1] [nM] | Kd [2] [nM]
D25 antibody | 0.15 | –
D25 antibody (antibody, V domains shown) VH: QVQLVQSGAEVKKPGSSVMVSCQASGGPLRNYIINWLRQAPGQGPEWMGGIIPVLGTVHYAPKFQGRVTITADESTDTAYIHLISLRSEDTAMYYCATETALVVSTTYLPHYFDNWGQGTLVTVSS VL: DIQMTQSPSSLSAAVGDRVTITCQASQDIVNYLNWYQQKPGKAPKLLIYVASNLETGVPSRFSGSGSGTDFSLTISSLQPEDVATYYCQQYDNLPLTFGGGTKVEIK | – | ~0.05
